Test system: MS2 coat protein
Experiment: apparent KD of MS2 coat protein; designed switch direction (-1 OFF switch, 1 ON switch): 1; higher = weaker reporter binding
Procedure, shortened: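 Stalled E. coli RNA polymerase transcribed designed RNA switches on Illumina chips, which were then titrated with SNAP-549-labelled MS2 coat protein, doubling from 0.7 or 1.5 nM to 3 µM. Steps lasted from 0.8–1.5 h at the lowest concentration to 10–20 min at the highest. The apparent KD is each design's median over clusters of curve-fitted normalised fluorescence.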

[1] = Eterna round: R95, input ligand: FMN 200 uM
[2] = Eterna round: R95, input ligand: microRNA oligo, concentration not stated
[3] = Eterna round: R95, input ligand: none
[4] = input ligand: microRNA oligo, concentration not stated

ACGUGGAUAUCACAGGAUAUACUCACAACUACAUGAGGAUCACCCAUGUAGCGGUAUUCCGGUGCGUAGAAGGGUGAUGGACCAC [Same State 2 - Mod of Artece v.3] (puzzle: Same State 2)
apparent KD of MS2 coat protein [1]: 12.1 nM | apparent KD of MS2 coat protein [2]: 12 nM | apparent KD of MS2 coat protein [3]: 11.4 nM

ACUCAGUACAAUUUAGAUCUACAUGAGGAUCACCCAUGUACUGAGGAUAUCAGCUCGAUUAGAGCUGAGAAGGCAGUUGUACUA [SSNG3/10-A2] (Eterna round: R96, puzzle: Same State NG 3)
apparent KD of MS2 coat protein (input ligand: FMN 200 uM): 82.3 nM | apparent KD of MS2 coat protein [4]: 161 nM | apparent KD of MS2 coat protein (input ligand: none): 125 nM

AGAAAACAUGAGGAUCACCCAUGUAGAAAUAUGGGAGGAUAUACAAAGACGAAAGUCAAGGUAGAAGGCCUAAAGA [Mat - Same State 1 - Meechl mod - D124] (Eterna round: R96, puzzle: Same State 1)
apparent KD of MS2 coat protein (input ligand: FMN 200 uM): 19.6 nM | apparent KD of MS2 coat protein [4]: 70.4 nM | apparent KD of MS2 coat protein (input ligand: none): 98.7 nM

AGAAGACAUGAGGAUCACCCAUGUAUGAAAAGUACAGGAUAUCAUGAGCUAAGGUGCGCAUGAGAAGGGUGAAAAU [Aatle] (puzzle: Same State 1)
apparent KD of MS2 coat protein [1]: 549 nM | apparent KD of MS2 coat protein [2]: 166 nM | apparent KD of MS2 coat protein [3]: 70.3 nM

AGACAUGAGGAUCACCCAUGUAUACACUAUAUCAGUGUAACAUAGGAUAUCCACCGCCAUGCUGUGGAGAAGGAUGAAACGGGC [Raerlaan] (Eterna round: R96, puzzle: Same State NG 3)
apparent KD of MS2 coat protein (input ligand: FMN 200 uM): 211 nM | apparent KD of MS2 coat protein [4]: 65.9 nM | apparent KD of MS2 coat protein (input ligand: none): 108 nM

AGAGAACAUGAGGAUCACCCAUGUAAGAGAAGUGUAGGAUAUGUGAGGAGCAGAGGAGGAACAGAAGGACAUGGAG [JR_SS!_Sub072] (puzzle: Same State 1)
apparent KD of MS2 coat protein [1]: 34.6 nM | apparent KD of MS2 coat protein [2]: 35.3 nM | apparent KD of MS2 coat protein [3]: 53.8 nM

AGAGCCGGCACUGAGGAUAUUCAUAUUAAAACAUGAGGAUCACCCAUGUAGGCCAGAAGGCCUUGGGAGAAGGCAGGUCGGCUCU [Mat - Same State 2 - Mod of UCT - D61] (Eterna round: R96, puzzle: Same State 2)
apparent KD of MS2 coat protein (input ligand: FMN 200 uM): 18.7 nM | apparent KD of MS2 coat protein [4]: 201 nM | apparent KD of MS2 coat protein (input ligand: none): 366 nM

AGAGCCGGCACUGAGGAUAUUCAUAUUAAAACAUGAGGAUCACCCAUGUAGGCCAGAAGGCCUUGGGAGAAGGCAGGUCGGCUCU [Mat - Same State 2 - Mod of UCT - D61] (puzzle: Same State 2)
apparent KD of MS2 coat protein [1]: 22.3 nM | apparent KD of MS2 coat protein [2]: 211 nM | apparent KD of MS2 coat protein [3]: 507 nM

AGAUCAUGACGAGGAUAUGGUACAUGAGGAUCACCCAUGUAUGUACCAUAACGCGUACGACGAAACCAGAAGGCGUCGUGGUCA [JL SSNG2 1.08] (Eterna round: R96, puzzle: Same State NG 2)
apparent KD of MS2 coat protein (input ligand: FMN 200 uM): 11.7 nM | apparent KD of MS2 coat protein [4]: 14.8 nM | apparent KD of MS2 coat protein (input ligand: none): 27 nM

AGAUGUUAAUUAGGAUAUGGACACAUGAGGAUCACCCAUGUAACGAAGAUACGAUGUGGUCAAGUCUAGAAGGGAUAGCUAACA [SameState NG2 #75] (Eterna round: R96, puzzle: Same State NG 2)
apparent KD of MS2 coat protein (input ligand: FMN 200 uM): 39.9 nM | apparent KD of MS2 coat protein [4]: 27.3 nM | apparent KD of MS2 coat protein (input ligand: none): 39 nM

AGAUGUUAAUUAGGAUAUGGGCACAUGAGGAUCACCCAUGUAUUUUCGAUGCUAUGUGGAGACGUCUAGAAGGGAUGGCUAACA [SameState NG2 #87] (Eterna round: R96, puzzle: Same State NG 2)
apparent KD of MS2 coat protein (input ligand: FMN 200 uM): 198 nM | apparent KD of MS2 coat protein [4]: 137 nM | apparent KD of MS2 coat protein (input ligand: none): 142 nM

AGCACGGGAUUGGAGGAUAUGUUGUUUGCAACAUGAGGAUCACCCAUGUCUGAGGCUGAAAAGCAGCAGAAGGCCGAUACAACCA [SS2-1.2] (Eterna round: R96, puzzle: Same State 2)
apparent KD of MS2 coat protein (input ligand: FMN 200 uM): 60.1 nM | apparent KD of MS2 coat protein [4]: 154 nM | apparent KD of MS2 coat protein (input ligand: none): 198 nM

AGCGAACAUGAGGAUCACCCAUGUAGACCGCGUGUGAUAACACAGGAUAUCAAAGGAAGAAGGAGUGAGAAGGGUGGGAAGGAG [Default title] (Eterna round: R96, puzzle: Same State NG 3)
apparent KD of MS2 coat protein (input ligand: FMN 200 uM): 93.6 nM | apparent KD of MS2 coat protein [4]: 53.7 nM | apparent KD of MS2 coat protein (input ligand: none): 75.1 nM

AGCUAGUACCGAGGAUAUACAUACAUGAGGAUCACCCAUGUAUACAUGAAUAAAUGAGACUACAUGUAGAAGGCGGUACUAGCA [Mat - Same State NG 2 - JL mod - D47] (Eterna round: R96, puzzle: Same State NG 2)
apparent KD of MS2 coat protein [4]: 48.8 nM

AGCUAGUACCGAGGAUAUACAUACAUGAGGAUCACCCAUGUAUACAUGAAUAUAUGAGACUACAUGUAGAAGGCGGUACUAGCA [Mat - Same State NG 2 - JL mod - D46] (Eterna round: R96, puzzle: Same State NG 2)
apparent KD of MS2 coat protein (input ligand: FMN 200 uM): 16.2 nM | apparent KD of MS2 coat protein [4]: 42 nM | apparent KD of MS2 coat protein (input ligand: none): 60.5 nM

AGCUAGUACCGAGGAUAUACGUACAUGAGGAUCACCCAUGUAUACAUGAUUUAAUGAGACUACAUGUAGAAGGCGGUACUAGCA [JL SSNG2 1.24] (Eterna round: R96, puzzle: Same State NG 2)
apparent KD of MS2 coat protein (input ligand: FMN 200 uM): 12.4 nM | apparent KD of MS2 coat protein [4]: 39 nM | apparent KD of MS2 coat protein (input ligand: none): 53.7 nM

AGCUAGUACCGAGGAUAUACUUACAUGAGGACUACCCAUGUAUACAUGGUUCAAUAGGACUACAUGUAGAAGGCGGUACUAGCA [jandersonlee JLSSNG2 1.24 1FMN F5CU+F7U.1] (Eterna round: R96, puzzle: Same State NG 2)
apparent KD of MS2 coat protein (input ligand: FMN 200 uM): 595 nM | apparent KD of MS2 coat protein [4]: 26.1 nM | apparent KD of MS2 coat protein (input ligand: none): 75.6 nM

AGCUAGUACGAAGGAUAUACAAACAUGAGGAUCACCCAUGUAUACAUGGUUAGAUGUGACUACAUGUAGAAGGUCGUACUAGCA [SameState NG2 #15] (Eterna round: R96, puzzle: Same State NG 2)
apparent KD of MS2 coat protein (input ligand: FMN 200 uM): 225 nM | apparent KD of MS2 coat protein [4]: 331 nM | apparent KD of MS2 coat protein (input ligand: none): 443 nM

AGCUAUUAAUCAGGAUAUAGUGACAUGAGGAUCACCCAUGUAUUGAUGAUGAAAUGUGGUCGCCGCUAGAAGGGAUUACUAACA [SameState NG2 #45] (Eterna round: R96, puzzle: Same State NG 2)
apparent KD of MS2 coat protein (input ligand: FMN 200 uM): 75.1 nM | apparent KD of MS2 coat protein [4]: 27.7 nM | apparent KD of MS2 coat protein (input ligand: none): 34 nM

AGCUAUUAAUCAGGAUAUGGUGACAUGAGGAUCACCCAUGUAUAGAUGAUUAAAUGUGGUCUAUACUAGAAGGGAUUACUAACA [SameState NG2 #53] (Eterna round: R96, puzzle: Same State NG 2)
apparent KD of MS2 coat protein (input ligand: FMN 200 uM): 2210 nM | apparent KD of MS2 coat protein [4]: 478 nM | apparent KD of MS2 coat protein (input ligand: none): 626 nM
